Assay results from patent publication US20130115213A1.

How the values were obtained:
[1] = target: human CD3 (TCR/CD3 complex) on the cell surface (human) (UniProt P07766); assay: cell-based or functional assay
[2] = target: human CD3 (TCR/CD3 complex) on the cell surface (human) (UniProt P07766); assay: flow cytometry on CD3+ Jurkat cells, Lineweaver-Burk fit
[3] = target: human CD3 (TCR/CD3 complex) on the cell surface (human) (UniProt P07766); assay: cell surface retention on CD3+ Jurkat cells at 37 C; ln2/koff
[4] = target: human CD3 (TCR/CD3 complex) on the cell surface (human) (UniProt P07766); assay: cell surface retention on CD3+ Jurkat cells at 37 C; reference scFv10
[5] = target: human CD3 (TCR/CD3 complex) on the cell surface (human) (UniProt P07766); assay: cell surface retention on CD3+ Jurkat cells at 37 C, flow cytometry, one-phase exponential decay fit

Sequence of UniProt P07766 (P07766 23-207, one chain of several): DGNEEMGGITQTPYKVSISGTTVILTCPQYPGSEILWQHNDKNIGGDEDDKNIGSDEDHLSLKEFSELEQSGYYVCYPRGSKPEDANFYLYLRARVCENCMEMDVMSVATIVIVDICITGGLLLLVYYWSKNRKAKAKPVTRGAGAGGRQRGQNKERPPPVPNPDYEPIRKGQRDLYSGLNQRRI

- CD3 modulation (fraction of TCR/CD3 complexes on the surface of T cells that is lost after antibody treatment), PBMC, 24 h [1]: > 90%
- Kd [2]: 2.06 nM
- t1/2 [3]: 2.59 min
- fold longer t1/2 against scFv10 [4]: 2.5 fold
- koff [5]: 0.00447 s⁻¹
Substance: mAb OKT3 (Orthoclone OKT3, Cilag) (antibody)
